What was measured:
HLA-DR DRB1*0101 (human) [1] = test: competition with 125I-labeled reference peptide, purified HLA
HLA-DR DRB1*0301 (human) [2] = test: as above
HLA-DR DRB1*0401 (human) [3] = test: as above
HLA-DR DRB1*0404 (human) = test: as above
HLA-DR DRB1*0405 (human) = test: as above
HLA-DR DRB1*1302 (human) [4] = test: as above
HLA-DR DRB1*0301 (human) [5] = test: competition vs 125I-labeled peptide, purified HLA
HLA-DR DRB1*0101 (human) [6] = test: competition vs 125I-labeled peptide, purified HLA
HLA-DR DRB1*0401 (human) [7] = test: competition vs 125I-labeled peptide, purified HLA
HLA-DR DRB1*1302 (human) [8] = test: competition vs 125I-labeled peptide, purified HLA
HLA-DR DRB1*1501 (human) = test: competition vs 125I-labeled peptide, purified HLA
HLA-DR DRB4*0101 (human) = test: competition vs 125I-labeled peptide, purified HLA
[9] = target: purified HLA-DR molecule DRB1*0101 (human); test: competition with 125I-labelled peptide for purified HLA
[10] = target: purified HLA-DR molecule DRB1*0301 (human); test: as above
[11] = target: purified HLA-DR molecule DRB1*0401 (human); test: as above
[12] = target: purified HLA-DR molecule DRB1*0404 (human); test: as above
[13] = target: purified HLA-DR molecule DRB1*0405 (human); test: as above
[14] = target: purified HLA-DR molecule DRB1*1302 (human); test: as above

Binder | IC50 (HLA-DR DRB1*0101 (human) [1]) [nM] | IC50 (HLA-DR DRB1*0301 (human) [2]) [nM] | IC50 (HLA-DR DRB1*0401 (human) [3]) [nM] | IC50 (HLA-DR DRB1*0404 (human)) [nM] | IC50 (HLA-DR DRB1*0405 (human)) [nM] | IC50 (HLA-DR DRB1*1302 (human) [4]) [nM] | IC50 (HLA-DR DRB1*0101 (human) [6]) [nM] | IC50 (HLA-DR DRB1*1302 (human) [8]) [nM] | IC50 (HLA-DR DRB1*1501 (human)) [nM] | IC50 (HLA-DR DRB4*0101 (human)) [nM] | also measured
ALQLLFEVEQEIRTF (modifications not checked) [Flu.NS2.178] | 3490 | 403 | 10300 | 2150 | 8870 | > 10000 | – | – | – | – | –
QLLLEVEQEIRTFSF (modifications not checked) [Flu.NS2.180] | 11900 | 792 | 13900 | 1600 | 5140 | 13200 | – | – | – | – | –
FNPMIVELAEKTMKE (modifications not checked) [Flu.PA.12] | 48 | 744 | 29 | 610 | 1240 | 1250 | – | – | – | – | –
LKQYDSDEPELRSLS (modifications not checked) [Flu.PA.393] | 17700 | 88 | 7260 | 5800 | > 10000 | > 10000 | – | – | – | – | –
SIWIELDEIGEDVAP (modifications not checked) [Flu.PA.423] | 13400 | 59 | 5400 | – | > 10000 | > 10000 | – | – | – | – | –
RNYFTAEVSHCRATE (modifications not checked) [Flu.PA.446] | 627 | 883 | 45 | 7600 | 5720 | > 10000 | – | – | – | – | –
LLVLMENERTLDFHD (modifications not checked) [Flu.HA.444] | – | – | – | – | – | – | – | – | – | – | IC50 (HLA-DR DRB1*0301 (human) [5]): 64 nM
IYQILSIYSTVASSLA (modifications not checked) [Flu.HA.529] | – | – | – | – | – | – | 55 | 13 | 4.7 | 18 | IC50 (HLA-DR DRB1*0401 (human) [7]): 89 nM
ILSIYSTVASSLALAI (modifications not checked) [Flu.HA.532] | – | – | – | – | – | – | 11 | 7.6 | 20 | 824 | IC50 (HLA-DR DRB1*0401 (human) [7]): 91 nM
EALMEWLKTRPILSP (modifications not checked) [Flu.M1.43] | – | – | – | – | – | – | 9.5 | 380 | 18 | 5510 | IC50 (HLA-DR DRB1*0401 (human) [7]): 891 nM
MEWLKTRPILSPLTK (modifications not checked) [Flu.M1.46] | – | – | – | – | – | – | 52 | 3880 | 111 | 7940 | IC50 (HLA-DR DRB1*0401 (human) [7]): 528 nM
QRGILEDEQMYQKCC (modifications not checked) [… (Flu.PB1.682)] | – | – | – | – | – | – | – | – | – | – | IC50 [9]: 433 nM; IC50 [10]: 34 nM; IC50 [11]: 2560 nM; IC50 [12]: 3270 nM; IC50 [13]: 700 nM; IC50 [14]: 10900 nM
RGILEDEQMYQKCCN (modifications not checked) [… (Flu.PB1.683)] | – | – | – | – | – | – | – | – | – | – | IC50 [9]: 199 nM; IC50 [10]: 43 nM; IC50 [11]: 5740 nM; IC50 [12]: 10500 nM; IC50 [13]: 3280 nM; IC50 [14]: 18000 nM
TRPILSPLTKGILGF (modifications not checked) [Flu.M1.51] | – | – | – | – | – | – | 423 | 292 | 140 | 192 | –
LRNLMSQSRTREILT (modifications not checked) [LRNLMS1SRTREILT (Flu.PB2.10)] | – | – | – | – | – | – | – | – | – | – | IC50 [9]: 613 nM; IC50 [10]: 978 nM; IC50 [11]: 4970 nM; IC50 [12]: 170 nM; IC50 [13]: 9690 nM; IC50 [14]: 5.4 nM
KYPITADKRIMEMIP (modifications not checked) [… (Flu.PB2.57)] | – | – | – | – | – | – | – | – | – | – | IC50 [10]: 48 nM; IC50 [11]: 9390 nM; IC50 [12]: 2290 nM; IC50 [14]: 68 nM
